The results in this text go back to patent US7595158B2, “Bcl2L12 polypeptide activators and inhibitors” (Dana-Farber Cancer Institute, Inc., priority 2003, dated 2009).

The subject of assay [1] is Ink4a-/-/Arf-/- astrocytes. Briefly: Growth of transduced Ink4a-/-/Arf-/- astrocytes under normal and low-serum conditions. Type of assay: cell-based, mouse. The note with it: over-expression, 10% FBS, vs vector only. The source says:
The Bcl2L12-V5, R-RAS, and IRF3 nucleic acid sequences were cloned into expression vectors. Controls included expression vectors containing EGFR or Bcl2 nucleic acid sequences. The encoded polypeptides were expressed in primary astrocytes and tested for cell growth, transformation, and apoptosis activities. Primary astrocytes deficient for Ink4a/Arf (e.g., Ink4a^−/−/Arf^−/− astrocytes) were used given the prominence of this tumor suppressor lesion in advanced human gliomas. The following was performed to assess growth characteristics under normal growth conditions. Mouse Ink4a^−/−/Arf^−/− astrocytes were retro-virally transduced with pBabe vector alone; Bcl2L12-V5 nucleic acid; R-RAS nucleic acid; IRF3 nucleic acid; EGFR* nucleic acid; or Bcl2 nucleic acid. After retro-viral infection, transduced mouse Ink4a^−/−/Arf^−/− astrocytes were subjected to puromycin (2 μg/mL) selection for four days and plated at a density of 1×10^5 cells/10 cm dish using 10% FBS-DMEM medium. All transduced Ink4a^−/−/Arf^−/− astrocytes were counted each day for five days to determine cell numbers (mean±S.D.; three independent experiments with each being performed in triplicate).
The following was performed to assess growth characteristics under low-serum growth conditions. Retro-virally transduced mouse Ink4a^−/−/Arf^−/− astrocytes (1×10^6 cells/10 cm dish) were allowed to attach onto plates in 10% FBS-DMEM medium for five hours. After five hours, the medium was changed to 0.1% FBS-DMEM, and the cells were allowed to grow for three days. After three days in 0.1% FBS, the cells were counted to determine cell numbers (mean±S.D.; three independent experiments with each being performed in triplicate). The number of Ink4a^−/−/Arf^−/− astrocytes infected with pBabe-vector was set to 1.0.

Assay [2] concerns Ink4a-/-/Arf-/- astrocytes. Kind of assay: Annexin V staining of STS-treated Ink4a/Arf deficient astrocytes (FACS). Type of assay: cell-based, mouse. The note with it: 100 nM staurosporine one day; control cultures about 17-22 percent. The protocol:
The following experiments were performed to determine whether the Bcl2L12 polypeptide influenced cell survival or apoptosis. Ink4a^−/−/Arf^−/− astrocytes retro-virally infected with vector alone (pBabe) or vector containing Bcl2 nucleic acid, Bcl2L12-V5 nucleic acid, R-RAS nucleic acid, or IRF3 nucleic acid were […] After this one day incubation, the cells were stained with annexin V (Roche). Annexin V-positive cells were determined by FACScan analysis (mean±S.D.; three independent experiments with each being performed in triplicate).
After STS treatment, the cells were analyzed for apoptosis by assessing annexin V binding and DNA fragmentation using a FACS based analysis.

Assay [3] deals with Ink4a/Arf deficient embryonic fibroblasts. Kind of assay: Colony formation of Ink4a/Arf deficient embryonic fibroblasts. Type of assay: cell-based. The note with it: about 300 cells per 6 well plate; vector only about 13. How it is done:
In addition, Ink4a/Arf deficient embryonic fibroblasts were transfected with vector only or a vector encoding a Bcl2L12 polypeptide or Bcl2 polypeptide. Once the cells were transfected, the number of colonies formed in cultures (about 300 cells per 6 well plate) was determined. Expression of Bcl2L12 polypeptide promoted growth of Ink4a/Arf deficient embryonic fibroblasts. […] In a similar experiment, Ink4a/Arf deficient embryonic fibroblasts were co-transfected with a vector encoding H-RasV12 and either a vector only, vector encoding Bcl2L12 polypeptide, or a vector encoding Bcl2 polypeptide. Once the cells were transfected, the number of foci formed per transfection was determined. Expression of Bcl2L12 polypeptide or Bcl2 polypeptide in combination with H-RasV12 expression promoted growth of Ink4a/Arf deficient embryonic fibroblasts (about 1.5 to 2 fold more foci per transfection for cells expressing Bcl2L12 polypeptide or Bcl2 polypeptide compared to control pBabe cells).

The test system of assay [4] is Ink4a-/-/Arf-/- mouse embryo fibroblasts. Kind of assay: Focus formation in cooperation with activated H-Ras in Ink4a-/-/Arf-/- mouse embryo fibroblasts. Type of assay: cell-based. The note with it: cotransfected with H-Ras G12V, vs pBabe. How it is done:
The oncogenic potential of these genes was determined directly through their capacity to cooperate with activated H-RAS to effect the malignant transformation of primary Ink4a^−/−/Arf^−/− cells. Briefly, Ink4a^−/−/Arf^−/− mouse embryo fibroblasts (MEFs) were seeded at 8×10^5 cells/10 cm dish and grown in 10% FBS-DMEM for one day and then cotransfected with 1.5 μg of activated H-Ras^G12V and 1.5 μg of either pBabe, Bcl2, Bcl2L12-V5, R-RAS, or IRF3 nucleic acid using Lipopectamine-plus reagent (Invitrogen). One day after cotransfection, each Ink4a^−/−/ARF^−/− MEF was splitted 1:3 ratio and refed with 10% FBS-DMEM every 3-4 day for ten days. After staining cells with crystal violet solution, foci were counted to determine transformation efficiency (mean±S.D.; three independent experiments with each being done in duplicate). The numbers of foci from cells cotransfected with H-Ras^G12V and pBabe vector were set to 100%.
In addition, Ink4a/Arf deficient embryonic fibroblasts were transfected with vector only or a vector encoding a Bcl2L12 polypeptide or Bcl2 polypeptide. Once the cells were transfected, the number of colonies formed in cultures (about 300 cells per 6 well plate) was determined. Expression of Bcl2L12 polypeptide promoted growth of Ink4a/Arf deficient embryonic fibroblasts. […] Once the cells were transfected, the number of foci formed per transfection was determined. […]

For the next assay, the target named is T1, caspase-9 (Homo sapiens, UniProt P55211).
T1 construct: endogenous in cells; host or cells: 293T
T1 sequence (P55211 1-416): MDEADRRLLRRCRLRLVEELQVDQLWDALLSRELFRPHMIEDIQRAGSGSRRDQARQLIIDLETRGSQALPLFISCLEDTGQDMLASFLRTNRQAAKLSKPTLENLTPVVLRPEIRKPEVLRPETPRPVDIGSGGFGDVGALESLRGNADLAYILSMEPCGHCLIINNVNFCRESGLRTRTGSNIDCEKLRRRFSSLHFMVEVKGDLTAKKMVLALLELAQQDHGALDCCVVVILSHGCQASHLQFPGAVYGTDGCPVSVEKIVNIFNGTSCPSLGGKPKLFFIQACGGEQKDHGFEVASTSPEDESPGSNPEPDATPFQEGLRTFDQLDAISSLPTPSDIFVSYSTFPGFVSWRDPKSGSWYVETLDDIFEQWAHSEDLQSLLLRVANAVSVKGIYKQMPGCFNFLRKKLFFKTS
Briefly: Caspase-9 in vitro cleavage and LEHDase activity assay with 293T cells. The note with it: V5 tagged constructs; vector only about 420 RFUs. It is filed as cell-based. The source says:
To determine if Bcl2L12 polypeptides could-regulate-the activity of caspase-9, a cell-free system was used in which exogenously added dATP and cytochrome c induced the activation of [^35S] labeled in vitro translated caspase-9. […] To confirm the inhibitory effect of Bcl2L12 polypeptides on caspase-9 maturation, 293T cells ectopically expressing Bcl2L12-V5 polypeptides where either subjected to an in vitro cleavage assay or to an activity assay using the caspase-9 specific fluorogenic peptide LEHD.
In addition, vectors encoding V5 tagged wild-type human Bcl2L12 polypeptide (WT; human amino acid sequence 1-334) and three V5 tagged truncation mutants of human Bcl2L12 (Bcl2L12-ΔBH2 polypeptide, human amino acid sequence 1-310; Bcl2L12-ΔBH2ΔP-r polypeptide, human amino acid sequence 1-267; and Bcl2L12-ΔBH2ΔP-rΔIHD polypeptide, human amino acid sequence 1-167) were made (FIG. 4A). These vectors expressed the appropriately sized polypeptides when translated in vitro or when expressed in 293T cells.

Turning to “Bcl2: Bcl2 polypeptide expressed from control expression vector [reference compound]”, the “growth / proliferation under normal growth conditions” value (“growth / proliferation” below) in assay [1] is on record as “failed to exhibit a pro-proliferative response”. For the same molecule, the annexin-V positive cells in assay [2] is 2-3%. The number of colonies entry in assay [3] is “about 10 colonies”.

B1: R-RAS: R-RAS polypeptide over-expressed from expression vector; candidate gene of the 19q13.3 amplicon (protein, UniProt P10301 1-215, looked up)
Ras-related protein R-Ras: MSSGAASGTGRGRPRGGGPGPGDPPPSETHKLVVVGGGGVGKSALTIQFIQSYFVSDYDPTIEDSYTKICSVDGIPARLDILDTAGQEEFGAMREQYMRAGHGFLLVFAINDRQSFNEVGKLFTQILRVKDRDDFPVVLVGNKADLESQRQVPRSEASAFGASHHVAYFEASAKLRLNVDEAFEQLVRAVRKYQEQELPPSPPSAPRKKGGGCPC
As to B1, the “growth / proliferation” value in assay [1] is listed as “moderate increase in proliferation”. The annexin-V positive cells in assay [2] is listed as 10-20%. Moreover, in assay [4], the “RAS-induced focus formation increase” value is given as “did not exhibit any cooperative activity”.

B2: Bcl2L12-ΔBH2ΔP-r: V5 tagged truncation mutant of human Bcl2L12, human amino acid sequence 1-267 (protein)
chain: MGRPAGLFPPLCPFLGFRPEACWERHMQIERAPSVPPFLRWAGYRPGPVRRRGKVELIKFVRVQWRRPQVEWRRRRWGPGPGASMAGSEELGLREDTLRVLAAFLRRGEAAGSPVPTPPRSPAQEEPTDFLSRLRRCLPCSLGRGAAPSESPRPCSLPIRPCYGLEPGPATPDFYALVAQRLEQLVQEQLKSPPSPELQGPPSTEKEAILRRLVALLEEEAEVINQKLASDPALRSKLVRLSSDSFARLVELFCSRDDSSRPSRACP
modifications: left off: small tags and cut ends
With B2, the caspase-9 activity entry with caspase-9 was “about 130 RFUs”.

B3: Bcl2L12-ΔBH2ΔP-rΔIHD: V5 tagged truncation mutant of human Bcl2L12, human amino acid sequence 1-167 (protein)
chain: MGRPAGLFPPLCPFLGFRPEACWERHMQIERAPSVPPFLRWAGYRPGPVRRRGKVELIKFVRVQWRRPQVEWRRRRWGPGPGASMAGSEELGLREDTLRVLAAFLRRGEAAGSPVPTPPRSPAQEEPTDFLSRLRRCLPCSLGRGAAPSESPRPCSLPIRPCYGLEP
modifications: left off: small tags and cut ends
For the molecule B3, the caspase-9 activity entry with caspase-9 is listed as “about 160 RFUs”.

B4: IRF3: IRF3 polypeptide expressed from expression vector; candidate gene of the 19q13.3 amplicon (protein, UniProt Q14653 1-427, looked up)
Interferon regulatory factor 3: MGTPKPRILPWLVSQLDLGQLEGVAWVNKSRTRFRIPWKHGLRQDAQQEDFGIFQAWAEATGAYVPGRDKPDLPTWKRNFRSALNRKEGLRLAEDRSKDPHDPHKIYEFVNSGVGDFSQPDTSPDTNGGGSTSDTQEDILDELLGNMVLAPLPDPGPPSLAVAPEPCPQPLRSPSLDNPTPFPNLGPSENPLKRLLVPGEEWEFEVTAFYRGRQVFQQTISCPEGLRLVGSEVGDRTLPGWPVTLPDPGMSLTDRGVMSYVRHVLSCLGGGLALWRAGQWLWAQRLGHCHTYWAVSEELLPNSGHGPDGEVPKDKEGGVFDLGPFIVDLITFTEGSGRSPRYALWFCVGESWPQDQPWTKRLVMVKVVPTCLRALVEMARVGGASSLENTVDLHISNSHPLSLTSDQYKAYLQDLVEGMDFQGPGES
As for B4, in assay [1], the “growth / proliferation” value is recorded as “failed to exhibit a pro-proliferative response”. The annexin-V positive cells in assay [2] was 14-16%. Besides, the “RAS-induced focus formation increase” value in assay [4] is reported as “did not exhibit any cooperative activity”.
